Assay results: patent publication US20080004355A1, “Method for Inhibiting Telomerase Activity and an Agent for Inhibiting the Same” (priority 2004, published 2008)
Peptide text beside a SMILES is read from it. * marks the point of attachment. Cbz = O=C(OCc1ccccc1)*

Key:
TERT = experiment: Effect of proteasome inhibitor on amount of intracellular TERT (transient TERT expression, Western blotting); type: cell-based, human; settings: HEK293T cells transfected with pCIneo-TERT; final concentration 25 μM, 24 hours; compared with DMSO control; Western blotting with anti-TERT antibodies
Description: NEDD8 is a ubiquitin-like protein, and is known to covalently conjugate to proteins for post translational modification of proteins. Only a cullin family protein, which is one of the subunits of a ubiquitin ligase complex, has been reported as a protein that undergoes NEDD8 conjugation (Non-patent References 5 and 6). […] NEDD8 has a significant homology with ubiquitin at the level of both primary structure and tertiary structure. Therefore, it is plausible that NEDD8 conjugation to proteins works as a signal for proteasome-dependent protein degradation (Non-patent Reference 5), similar to ubiquitination. Thus, it can be reasoned, that there exists a regulatory system for TERT degradation via modification by NEDD8 conjugation to TERT and NEDD8 deconjugation by USP21. Accordingly, an investigation was conducted to determine whether TERT may undergo proteasome-dependent degradation. […]
8×10^4 cells/well of HEK293T cells were cultured overnight at 37° C. under the atmosphere of 5% CO2 in 12 well plates, and then transfected with 1 μg of pCIneo-TERT using FuGENE6 Transfection Reagent (Roche). […] Further, β-tubulin, an internal control protein in the cell lysates, was detected by Western blotting using anti-β-tubulin (H-235) antibodies (Santa Cruz). […]

[1] = biological target: T1, N-terminal FLAG-tagged TERT (human, UniProt O14746 1-1132); experiment: co-expression in HEK293T cells, immunoprecipitation with anti-HA agarose, Western blot with anti-FLAG
T1 construct: Expressed transiently in HEK293T cells from pCI-FLAG-TERT (human TERT cDNA cloned from human thymus cDNA); present in the cell lysate; also called FLAG-TERT
T1 sequence (O14746 whole entry): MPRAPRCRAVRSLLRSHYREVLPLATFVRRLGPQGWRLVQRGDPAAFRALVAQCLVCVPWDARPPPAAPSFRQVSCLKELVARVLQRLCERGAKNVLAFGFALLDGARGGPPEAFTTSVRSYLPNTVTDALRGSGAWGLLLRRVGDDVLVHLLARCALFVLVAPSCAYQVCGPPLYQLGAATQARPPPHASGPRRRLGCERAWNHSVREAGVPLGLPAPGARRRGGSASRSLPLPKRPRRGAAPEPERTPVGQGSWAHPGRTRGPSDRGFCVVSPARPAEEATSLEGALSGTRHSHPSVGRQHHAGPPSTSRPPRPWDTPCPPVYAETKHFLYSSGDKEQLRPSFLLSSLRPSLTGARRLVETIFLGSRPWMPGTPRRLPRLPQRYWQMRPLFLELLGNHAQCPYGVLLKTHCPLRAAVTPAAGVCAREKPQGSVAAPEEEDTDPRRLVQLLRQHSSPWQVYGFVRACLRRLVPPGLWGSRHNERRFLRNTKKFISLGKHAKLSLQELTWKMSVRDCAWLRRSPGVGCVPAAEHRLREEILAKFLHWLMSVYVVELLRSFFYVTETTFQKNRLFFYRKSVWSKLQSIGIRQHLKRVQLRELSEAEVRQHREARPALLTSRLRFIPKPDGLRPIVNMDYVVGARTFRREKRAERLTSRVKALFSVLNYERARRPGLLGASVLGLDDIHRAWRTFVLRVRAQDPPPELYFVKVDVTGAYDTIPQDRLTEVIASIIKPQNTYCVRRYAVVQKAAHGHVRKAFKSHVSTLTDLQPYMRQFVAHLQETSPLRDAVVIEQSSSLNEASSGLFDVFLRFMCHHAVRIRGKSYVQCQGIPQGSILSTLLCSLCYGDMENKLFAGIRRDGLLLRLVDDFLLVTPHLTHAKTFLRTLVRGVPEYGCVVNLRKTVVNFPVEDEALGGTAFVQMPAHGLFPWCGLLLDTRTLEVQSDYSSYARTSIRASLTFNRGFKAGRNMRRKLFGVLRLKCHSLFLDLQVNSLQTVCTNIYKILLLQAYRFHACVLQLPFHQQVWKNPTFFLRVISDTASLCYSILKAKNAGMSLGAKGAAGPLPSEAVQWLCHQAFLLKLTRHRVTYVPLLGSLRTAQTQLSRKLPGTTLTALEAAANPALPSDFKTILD
Description: 4×10⁵ HEK293T cells were cultured overnight at 37° C. under the atmosphere of 5% CO₂ in a dish with 60 mm diameter, and then transfected with 2 μg of pCI-FLAG-TERT alone or in combination with 2 μg of pCI-HA-USP21 or pCI-HA-NEDD8, using FuGENE6 Transfection Reagent (Roche). After 2 days of culturing, the cells were collected and suspended in 500 μl of cell lysis buffer (20 mM Tris-HCl, pH7.4/150 mM NaCl/1 mM ethylenediaminetetraacetic acid (EDTA)/1 mM ethylene glycol-bis-tetraacetic acid (EGTA)/1% Triton X-100/2.5 mM sodium pyrophsphate/1 mM β-glycerophsphate/1 mM Na₃VO₄/protease inhibitor cocktail), and then left to stand on ice for 20 minutes. Subsequently, centrifugation was conducted at 4° C. for 10 minutes at 14,000 rpm to collect the supernatants. The supernatants that were collected were used as cell lysates. […] The resulting supernatant was added to 10 μl of anti-HA antibody-conjugated agarose (anti-HA(Y-11)-agaraose, Santa cruz), and then subjected to overturned mixing at 4° C. overnight, followed by centrifugation to collect the beads. The beads were washed with the cell lysis buffer four times, and then added with 30 μl of 2× SDS sample buffer (125 mM Tris HCl, pH 6.8/4% sodium dodecylsulphate (SDS)/20% glycerol/0.01% bromophenol blue). […]

[2] = biological target: TERT modified with one or more FLAG-NEDD8 molecules (NEDD8-conjugated TERT)

Molecule	amount of TERT in cell lysate (TERT)	binding result [1]	smear-like signals in a high molecular region indicating TERT modified with one or more FLAG-NEDD8 molecules (IP anti-TERT, Western blot anti-FLAG) [2]
CC(C)C[C@@H](C=O)NC(=O)[C@H](CC(C)C)NC(=O)[C@H](CC(C)C)NC(=O)OCc1ccccc1 [MG132] (Cbz-Leu-Leu-Leu-aldehyde)	increased amount of TERT	–	–
N-terminal HA-tagged USP21 (enzyme, not shown: small tags and cut ends, Expressed transiently in HEK293T cells from pCI-HA-USP21 (human USP21 cDNA cloned from human kidney cDNA); also called HA-USP21) MPQASEHRLGRTREPPVNIQPRVGSKLPFAPRARSKERRNPASGPNPMLRPLPPRPGLPDERLKKLELGRGRTSGPRPRGPLRADHGVPLPGSPPPTVALPLPSRTNLARSKSVSSGDLRPMGIALGGHRGTGELGAALSRLALRPEPPTLRRSTSLRRLGGFPGPPTLFSIRTEPPASHGSFHMISARSSEPFYSDDKMAHHTLLLGSGHVGLRNLGNTCFLNAVLQCLSSTRPLRDFCLRRDFRQEVPGGGRAQELTEAFADVIGALWHPDSCEAVNPTRFRAVFQKYVPSFSGYSQQDAQEFLKLLMERLHLEINRRGRRAPPILANGPVPSPPRRGGALLEEPELSDDDRANLMWKRYLEREDSKIVDLFVGQLKSCLKCQACGYRSTTFEVFCDLSLPIPKKGFAGGKVSLRDCFNLFTKEEELESENAPVCDRCRQKTRSTKKLTVQRFPRILVLHLNRFSASRGSIKKSSVGVDFPLQRLSLGDFASDKAGSPVYQLYALCNHSGSVHYGHYTALCRCQTGWHVYNDSRVSPVSENQVASSEGYVLFYQLMQEPPRCL	–	binds	significantly decreased by co-expression of HA-USP21
N-terminal HA-tagged inactive USP21 (protein) MPQASEHRLGRTREPPVNIQPRVGSKLPFAPRARSKERRNPASGPNPMLRPLPPRPGLPDERLKKLELGRGRTSGPRPRGPLRADHGVPLPGSPPPTVALPLPSRTNLARSKSVSSGDLRPMGIALGGHRGTGELGAALSRLALRPEPPTLRRSTSLRRLGGFPGPPTLFSIRTEPPASHGSFHMISARSSEPFYSDDKMAHHTLLLGSGHVGLRNLGNTAFLNAVLQCLSSTRPLRDFCLRRDFRQEVPGGGRAQELTEAFADVIGALWHPDSCEAVNPTRFRAVFQKYVPSFSGYSQQDAQEFLKLLMERLHLEINRRGRRAPPILANGPVPSPPRRGGALLEEPELSDDDRANLMWKRYLEREDSKIVDLFVGQLKSCLKCQACGYRSTTFEVFCDLSLPIPKKGFAGGKVSLRDCFNLFTKEEELESENAPVCDRCRQKTRSTKKLTVQRFPRILVLHLNRFSASRGSIKKSSVGVDFPLQRLSLGDFASDKAGSPVYQLYALCNHSGSVHYGHYTALCRCQTGWHVYNDSRVSPVSENQVASSEGYVLFYQLMQEPPRCL	–	–	Such decrease of the signals was not observed when co-expressing the inactive USP21, HA-USP21C221A, instead of HA-USP21
